Here are results for three molecules from patent US20240277857A1 (NBIOS, published 2024).

Assay [1] has as its target T1, coil C-mCherry-6xHis fusion protein (human).
T1 construct: also called mCherry-C; wild-type mCherry-C; not shown: mCherry red fluorescent protein fused to the C-terminal of coil C
T1 chain: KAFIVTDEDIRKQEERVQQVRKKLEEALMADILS
Briefly: ITC, C′-GFP injected into C-mCherry, PBS pH 7.5, 25 °C. Here is the method: ITC analysis was conducted using MicroCal Auto-iTC200 (Malvern Panalytical) at the Korea Basic Science Institute (Ochang, Korea). […] For titration, 2 μL of C′-GFP was injected to C-mCherry 19 times at 25° C. for 4 seconds, with 150-seconds intervals, and data were analyzed using the MicroCal Origin 7.0 software. N is the stoichiometric number, KD is the binding affinity, and AH and AS are changes in enthalpy and binding entropy, respectively.

Assay [2] has as its target T2, C_Ala27 (A27C) coil C mutant fused to mCherry (human).
T2 construct: also called C half of Ala27-Ile8
T2 chain: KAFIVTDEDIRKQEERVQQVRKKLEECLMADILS
Description: FRET between GFP and mCherry, equimolar mixture, 4 µM, plate reader. On the procedure:
(§1) A sample of wild-type GFP alone or a mixture of C′-GFP/C-mCherry, Ala27-lle8 and Thr6-Arg29 in equimolar quantities was diluted appropriately with phosphate-buffered saline (PBS) to make a total volume of 200 μL and a concentration of 4 μM. The sample was transferred to a 96-well plate and the absorbance at 510 nm 488 nm and luminescence (fluorescence) of each well were measured with the Synergy H1 hybrid multi-mode microplate reader (BioTek). After calculating the luminescence (A) per unit absorbance of the wild-type GFP alone sample and the luminescence (B) per unit absorbance of each sample, fluorescence resonance energy transfer efficiency was calculated by the following equation.

Assay [3] has as its target T3, C_Thr6 (T6C) coil C mutant fused to mCherry (human).
T3 construct: also called C half of Thr6-Arg29
T3 chain: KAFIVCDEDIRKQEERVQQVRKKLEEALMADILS
The assay is described as above. Here is the method:
as §1

B1: coil C′-GFP-6xHis fusion protein (other)
chain: PEERERMIKQLKEELRLEEAKLVLLKKLRQSQIQKEATAQK
notes: also called GFP-C′; wild-type GFP-C′; not shown: green fluorescent protein (GFP) fused to the C-terminal of coil C′
Take B1: in assay [1], the Kd stood at 10.7 nM, the ΔH is -2.6 kcal/mol and the ΔS was -52.4 cal/mol/deg.
With PEERERMCKQLKEELRLEEAKLVLLKKLRQSQIQKEATAQK (other, not shown: large carriers, not fully specified, also called 18C; C′ half of Ala27-Ile8) [C′_Ile8 (I8C) coil C′ mutant fused to GFP], the “FRET efficiency, fold against wild-type (GFP-C′+mCherry-C)” value in assay [2] was at least 2 fold.
Turning to PEERERMIKQLKEELRLEEAKLVLLKKLCQSQIQKEATAQK (other, not shown: large carriers, also called C′ half of Thr6-Arg29) [C′_Arg29 (R29C) coil C′ mutant fused to GFP], the “FRET efficiency, fold against wild-type (GFP-C′+mCherry-C)” value in assay [3] is at least 2 fold.
